The target in the assay is IGF-I receptor (human (endogenous in HT-29)) (UniProt P08069).

Non-standard residues stand in square brackets, D forms with d. No end group written: not given here. *: point of attachment. Acm = CC(=O)NC*

Data on one molecule can be found in PMC2276513.

UniProt P08069, sequence (P08069 31-1367): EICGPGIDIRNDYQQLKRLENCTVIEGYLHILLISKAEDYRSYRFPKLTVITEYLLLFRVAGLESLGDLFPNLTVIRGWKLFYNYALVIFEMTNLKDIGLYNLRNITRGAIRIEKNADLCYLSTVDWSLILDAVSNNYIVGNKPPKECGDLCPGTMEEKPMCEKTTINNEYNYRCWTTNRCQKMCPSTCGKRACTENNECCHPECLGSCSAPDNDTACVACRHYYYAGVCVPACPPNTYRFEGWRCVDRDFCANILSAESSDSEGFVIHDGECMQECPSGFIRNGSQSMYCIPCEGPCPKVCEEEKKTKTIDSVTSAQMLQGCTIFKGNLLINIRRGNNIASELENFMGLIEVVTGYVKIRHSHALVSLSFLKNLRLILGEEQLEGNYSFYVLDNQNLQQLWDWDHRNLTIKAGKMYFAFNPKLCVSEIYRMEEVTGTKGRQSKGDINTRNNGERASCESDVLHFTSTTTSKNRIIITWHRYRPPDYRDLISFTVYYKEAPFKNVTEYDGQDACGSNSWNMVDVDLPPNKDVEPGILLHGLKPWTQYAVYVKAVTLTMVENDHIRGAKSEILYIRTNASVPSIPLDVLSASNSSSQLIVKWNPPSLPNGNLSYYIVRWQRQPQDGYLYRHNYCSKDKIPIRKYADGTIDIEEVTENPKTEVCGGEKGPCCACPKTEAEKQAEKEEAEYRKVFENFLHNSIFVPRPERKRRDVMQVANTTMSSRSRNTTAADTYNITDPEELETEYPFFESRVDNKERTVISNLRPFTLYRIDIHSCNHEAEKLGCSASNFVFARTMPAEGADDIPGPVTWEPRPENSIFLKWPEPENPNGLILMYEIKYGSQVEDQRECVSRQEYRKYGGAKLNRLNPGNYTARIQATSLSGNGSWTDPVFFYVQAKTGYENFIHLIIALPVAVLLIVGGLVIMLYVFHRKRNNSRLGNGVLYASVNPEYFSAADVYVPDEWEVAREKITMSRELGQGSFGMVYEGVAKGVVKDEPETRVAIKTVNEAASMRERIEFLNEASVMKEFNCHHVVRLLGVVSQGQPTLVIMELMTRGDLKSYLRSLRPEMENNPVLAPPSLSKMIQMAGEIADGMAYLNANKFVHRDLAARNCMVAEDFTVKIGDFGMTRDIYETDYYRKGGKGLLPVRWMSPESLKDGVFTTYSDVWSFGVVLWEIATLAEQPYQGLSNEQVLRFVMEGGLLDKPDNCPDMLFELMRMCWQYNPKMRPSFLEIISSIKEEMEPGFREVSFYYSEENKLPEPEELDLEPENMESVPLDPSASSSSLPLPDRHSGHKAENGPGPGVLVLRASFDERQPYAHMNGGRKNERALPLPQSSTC

B1: IGF-I D domain analogue peptide (M1557) (peptide)
peptide: [dY]C(Acm)[dA][dP][dL][dK][dP][dA][dK][dS][dA]-NH2
modifications: N-terminus assumed
SMILES: CC(=O)NCSC[C@H](NC(=O)[C@H](N)Cc1ccc(O)cc1)C(=O)N[C@H](C)C(=O)N1CCC[C@@H]1C(=O)N[C@H](CC(C)C)C(=O)N[C@H](CCCCN)C(=O)N1CCC[C@@H]1C(=O)N[C@H](C)C(=O)N[C@H](CCCCN)C(=O)N[C@H](CO)C(=O)N[C@H](C)C(N)=O
For the molecule B1, the proliferation of HT-29 cells (modified Alamar Blue assay), 48 h with 0.001-1 uM M1557 in medium with 10% FBS: percent inhibition fell in the range of 14 to 15%.
